Assay results from PMC9122904, “Insights into the client protein release mechanism of the ATP-independent chaperone Spy” (Nature Communications, 2022).

Columns and labels:
Assay in all cases: BLI; Octet RED96; client biotinylated and loaded on streptavidin sensors; Spy or Spy variant in solution at 0.25, 0.5, 1, 1.5 and 2 μM; 40 mM HEPES, 150 mM NaCl, pH 7.5; Kd calculated as koff/kon
Details in all cases: both partners purified
Spy_(D26K K54D R55D) = molecular target: T1, Spy_(D26K K54D R55D) (UniProt P77754 24-161, D26K | K54D | R55D)
T1 construct: source: E. coli BL21 (DE3), purified (Ni-NTA, cation exchange, SEC); not shown: His6, N-terminal, cleaved; SUMO, N-terminal, cleaved
T1 sequence (looked up): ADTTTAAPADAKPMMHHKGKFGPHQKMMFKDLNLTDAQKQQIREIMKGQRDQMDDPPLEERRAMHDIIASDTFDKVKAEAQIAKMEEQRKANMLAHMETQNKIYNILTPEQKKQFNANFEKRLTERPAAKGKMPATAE
Outline: (§1)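 Biolayer interferometry used an Octet RED96: client proteins biotinylated with EZ-link NHS-biotin (1:1 molar ratio) were loaded on streptavidin sensors, dipped into 40 mM HEPES, 150 mM NaCl, pH 7.5 containing Spy protein at 0.25, 0.5, 1, 1.5 and 2 μM, then moved to Spy-free buffer. Wavelength-shift association and dissociation curves were fitted in SigmaPlot 12.0, giving observed association rate and koff. kon came from observed rate versus Spy concentration; Kd was koff/kon.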

Spy D26K K121D R122D = molecular target: T2, Spy D26K K121D R122D (UniProt P77754 24-161, D26K | K121D | R122D)
T2 construct: source: E. coli BL21 (DE3), purified (Ni-NTA, cation exchange, SEC); not shown: His6, N-terminal, cleaved; SUMO, N-terminal, cleaved
T2 sequence (looked up): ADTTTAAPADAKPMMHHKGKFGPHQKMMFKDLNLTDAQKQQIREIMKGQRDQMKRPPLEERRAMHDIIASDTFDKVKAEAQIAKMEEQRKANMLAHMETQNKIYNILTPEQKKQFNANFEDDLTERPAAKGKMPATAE
Outline: as §1

Spy_(K54D R55D) = molecular target: T3, Spy_(K54D R55D) (UniProt P77754 24-161, K54D | R55D)
T3 construct: source: E. coli BL21 (DE3), purified (Ni-NTA, cation exchange, SEC); not shown: His6, N-terminal, cleaved; SUMO, N-terminal, cleaved
T3 sequence (looked up): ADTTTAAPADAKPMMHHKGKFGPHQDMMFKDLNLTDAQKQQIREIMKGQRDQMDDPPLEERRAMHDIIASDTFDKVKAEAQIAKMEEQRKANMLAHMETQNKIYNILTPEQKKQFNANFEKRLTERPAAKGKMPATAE
Outline: as §1

Spy D26K R50D = molecular target: T4, Spy D26K R50D (UniProt P77754 24-161, D26K | R50D)
T4 construct: source: E. coli BL21 (DE3), purified (Ni-NTA, cation exchange, SEC); not shown: His6, N-terminal, cleaved; SUMO, N-terminal, cleaved
T4 sequence (looked up): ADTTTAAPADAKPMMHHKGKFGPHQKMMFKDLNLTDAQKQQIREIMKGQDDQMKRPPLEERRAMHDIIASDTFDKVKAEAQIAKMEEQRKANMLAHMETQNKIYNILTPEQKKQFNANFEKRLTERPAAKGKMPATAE
Outline: as §1

Spy_(K75D) = molecular target: T5, Spy_(K75D) (UniProt P77754 24-161, K75D)
T5 construct: also called control protein; source: E. coli BL21 (DE3), purified (Ni-NTA, cation exchange, SEC); not shown: His6, N-terminal, cleaved; SUMO, N-terminal, cleaved
T5 sequence (looked up): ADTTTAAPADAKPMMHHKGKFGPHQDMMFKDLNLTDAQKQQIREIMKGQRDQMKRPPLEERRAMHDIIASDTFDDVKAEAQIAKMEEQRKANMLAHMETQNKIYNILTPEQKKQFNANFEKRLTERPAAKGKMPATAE
Outline: as §1

Spy_(R43D) = molecular target: T6, Spy_(R43D) (UniProt P77754 24-161, R43D)
T6 construct: source: E. coli BL21 (DE3), purified (Ni-NTA, cation exchange, SEC); not shown: His6, N-terminal, cleaved; SUMO, N-terminal, cleaved
T6 sequence (looked up): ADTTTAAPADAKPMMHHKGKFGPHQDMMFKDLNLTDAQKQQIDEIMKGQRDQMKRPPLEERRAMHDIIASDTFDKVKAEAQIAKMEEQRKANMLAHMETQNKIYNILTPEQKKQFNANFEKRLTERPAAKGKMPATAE
Outline: as §1

Spy D26K K75D = molecular target: T7, Spy D26K K75D (UniProt P77754 24-161, D26K | K75D)
T7 construct: source: E. coli BL21 (DE3), purified (Ni-NTA, cation exchange, SEC); not shown: His6, N-terminal, cleaved; SUMO, N-terminal, cleaved
T7 sequence (looked up): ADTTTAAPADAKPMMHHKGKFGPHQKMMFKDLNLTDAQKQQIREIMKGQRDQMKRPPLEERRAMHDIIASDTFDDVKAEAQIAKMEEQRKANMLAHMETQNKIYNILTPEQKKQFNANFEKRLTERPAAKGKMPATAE
Outline: as §1

Spy_(K121D R122D) = molecular target: T8, Spy_(K121D R122D) (UniProt P77754 24-161, K121D | R122D)
T8 construct: source: E. coli BL21 (DE3), purified (Ni-NTA, cation exchange, SEC); not shown: His6, N-terminal, cleaved; SUMO, N-terminal, cleaved
T8 sequence (looked up): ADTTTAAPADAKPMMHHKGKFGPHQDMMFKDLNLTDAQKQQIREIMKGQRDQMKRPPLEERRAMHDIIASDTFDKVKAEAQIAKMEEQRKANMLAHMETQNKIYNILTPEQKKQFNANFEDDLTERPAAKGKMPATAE
Outline: as §1

koff (Spy_(D26K K54D R55D)): 0.425 s⁻¹
koff (Spy D26K K121D R122D): 0.202 s⁻¹
koff (Spy_(K54D R55D)): 0.0743 s⁻¹
koff (Spy D26K R50D): 0.147 s⁻¹
koff (Spy_(K75D)): 0.183 s⁻¹
koff (Spy_(R43D)): 0.533 s⁻¹
koff (Spy D26K K75D): 0.0595 s⁻¹
koff (Spy_(K121D R122D)): 0.46 s⁻¹
B1: Im7 H40W L53A I54A (natural protein)
chain: MELKNSISDYTEAEFVQLLKEIEKENVAATDDVLDVLLEWFVKITEHPDGTDAAYYPSDNRDDSPEGIVKEIKEWRAANGKPGFKQG
modifications: biotin (EZ-link NHS-biotin, 1:1 molar ratio of biotin to protein)
notes: Im7 (colicin E7 immunity protein) with H40W L53A I54A; Spy was made with an N-terminal His6-SUMO tag that was cleaved; also called Im7AAW; partially folded client; source: purified by a similar procedure to Spy
